Experimental data: patent US20240254190A1 (published 2024)

How the values were obtained:
Experiment in all cases: cytokine release
[1] = target: T1, p53 C135Y peptide on HLA-DPA1*01:03 / HLA-DPB1*11:01 (human)
T1 peptide: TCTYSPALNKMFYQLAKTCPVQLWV

[2] = target: T2, p53 C135Y peptide on HLA-DRA*01:01 / HLA-DRB1*07:01 (human)
T2 peptide: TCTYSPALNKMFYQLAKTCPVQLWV

[3] = target: T3, p53 C135Y peptide on HLA-DPA1*01:03 / HLA-DPB1*02:01 (human)
T3 peptide: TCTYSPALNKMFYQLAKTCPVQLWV

[4] = target: T4, p53 C135Y peptide on HLA-DQA1*01:01 / HLA-DQB1*02:02 (human)
T4 peptide: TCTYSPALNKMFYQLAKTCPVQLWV

[5] = target: T5, p53 C135Y peptide on HLA-DQA*01:01 / HLA-DRB4*01:01 (human)
T5 peptide: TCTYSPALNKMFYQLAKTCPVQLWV

[6] = target: T6, p53 C135Y peptide on HLA-DQA1*01:01 / HLA-DQB1*05:01 (human)
T6 peptide: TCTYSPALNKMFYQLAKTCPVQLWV

[7] = target: T7, p53 C135Y peptide on HLA-DRA*01:01 / HLA-DRB3*01:01 (human)
T7 peptide: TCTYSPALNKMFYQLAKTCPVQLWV

[8] = target: T8, p53 wild type peptide on HLA-DRA*01:01 / HLA-DRB1*07:01 (human)
T8 peptide: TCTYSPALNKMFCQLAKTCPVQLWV

[9] = target: T9, p53 C135Y peptide on HLA-DQA1*02:01 / HLA-DQB1*02:02 (human)
T9 peptide: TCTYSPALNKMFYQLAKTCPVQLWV

[10] = target: T10, p53 C135Y peptide on HLA-DQA1*02:01 / HLA-DQB1*05:01 (human)
T10 peptide: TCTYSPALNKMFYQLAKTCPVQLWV

[11] = target: T11, p53 C135Y peptide on HLA-DQA1*01:01 / HLA-DQB1*02:01 (human)
T11 peptide: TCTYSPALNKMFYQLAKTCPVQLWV

[12] = target: T12, p53 C135Y peptide on HLA-DPA1*02:01 / HLA-DPB1*02:01 (human)
T12 peptide: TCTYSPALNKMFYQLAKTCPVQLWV

[13] = target: T13, p53 C135Y peptide on HLA-DQA1*02:01 / HLA-DQB1*02:01 (human)
T13 peptide: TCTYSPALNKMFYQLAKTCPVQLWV

[14] = target: T14, p53 C135Y peptide on HLA-DPA1*02:01 / HLA-DPB1*11:01 (human)
T14 peptide: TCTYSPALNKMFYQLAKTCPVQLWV

[15] = target: T15, p53 wild type peptide on HLA-A*02:01 (human)
T15 peptide: HMTEVVRRC

[16] = target: T16, p53 R175H peptide on HLA-B*08:01 (human)
T16 peptide: HMTEVVRHC

[17] = target: T17, p53 R175H peptide on HLA-C*07:01 (human)
T17 peptide: HMTEVVRHC

[18] = target: T18, p53 R175H peptide on HLA-A*23:01 (human)
T18 peptide: HMTEVVRHC

[19] = target: T19, p53 R175H peptide on HLA-B*44:03 (human)
T19 peptide: HMTEVVRHC

[20] = target: T20, p53 R175H peptide on HLA-C*04:01 (human)
T20 peptide: HMTEVVRHC

[21] = target: T21, p53 wild type peptide on HLA-DRA*01:01 / HLA-DRB1*01:01 (human)
T21 peptide: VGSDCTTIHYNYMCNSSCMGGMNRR

B1: 4316-D TCR (TCR, V domains shown)
Valpha: QQVMQIPQYQHVQEGEDFTTYCNSSTTLSNIQWYKQRPGGHPVFLIQLVKSGEVKKQKRLTFQFGEAKKNSSLHITATQTTDVGTYFCAESYSGGYQKVTFGIGTKLQVIP
Vbeta: EPEVTQTPSHQVTQMGQEVILRCVPISNHLYFYWYRQILGQKVEFLVSFYNNEISEKSEIFDDQFSVERPDGSNFTLKIRSTKLEDSAMYFCASSSFSNEQFFGPGTRLTVL
**Q.** Does B1 bind [1]?
**A.** Result: no recognition

**Q.** Does B1 bind [2]?
**A.** Result: recognises

**Q.** Does B1 bind [3]?
**A.** Result: no recognition

**Q.** Does B1 bind [4]?
**A.** Result: no recognition

**Q.** Does B1 bind [5]?
**A.** Result: no recognition

**Q.** Does B1 bind [6]?
**A.** Result: no recognition

**Q.** Does B1 bind [7]?
**A.** Result: no recognition

**Q.** Does B1 bind [8]?
**A.** Result: no recognition

**Q.** Does B1 bind [9]?
**A.** Result: no recognition

**Q.** Does B1 bind [10]?
**A.** Result: no recognition

**Q.** Does B1 bind [11]?
**A.** Result: no recognition

**Q.** Does B1 bind [12]?
**A.** Result: no recognition

**Q.** Does B1 bind [13]?
**A.** Result: no recognition

**Q.** Does B1 bind [14]?
**A.** Result: no recognition

B2: 4141 IVS TCR (TCR, V domains shown)
Valpha: QTVTQSQPEMSVQEAETVTLSCTYDTSENNYYLFWYKQPPSRQMILVIRQEAYKQQNATENRFSVNFQKAAKSFSLKISDSQLGDTAMYFCAFMAYMEYGNKLVFGAGTILRVKS
Vbeta: EPEVTQTPSHQVTQMGQEVILRCVPISNHLYFYWYRQILGQKVEFLVSFYNNEISEKSEIFDDQFSVERPDGSNFTLKIRSTKLEDSAMYFCACKGITDTQYFGPGTRLTVL
**Q.** Does B2 bind [15]?
**A.** Result: no recognition

**Q.** Does B2 bind [16]?
**A.** Result: no recognition

**Q.** Does B2 bind [17]?
**A.** Result: no recognition

**Q.** Does B2 bind [18]?
**A.** Result: no recognition

**Q.** Does B2 bind [19]?
**A.** Result: no recognition

**Q.** Does B2 bind [20]?
**A.** Result: no recognition

B3: 4304 TCR-2 (TCR, V domains shown)
Valpha: QSVSQHNHHVILSEAASLELGCNYSYGGTVNLFWYVQYPGQHLQLLLKYFSGDPLVKGIKGFEAEFIKSKFSFNLRKPSVQWSDTAEYFCAVTFMDTGRRALTFGSGTRLQVQP
Vbeta: GVSQSPSNKVTEKGKDVELRCDPISGHTALYWYRQSLGQGLEFLIYFQGNSAPDKSGLPSDRFSAERTGGSVSTLTIQRTQQEDSAVYLCASSPRGGDYEQYFGPGTRLTVT
**Q.** Does B3 bind [21]?
**A.** Result: no recognition

B4: 4304 TCR-4 (TCR, V domains shown)
Valpha: QKEVEQNSGPLSVPEGAIASLNCTYSDRGSQSFFWYRQYSGKSPELIMFIYSNGDKEDGRFTAQLNKASQYVSLLIRDSQPSDSATYLCAVRGGNTGFQKLVFGTGTRLLVSP
Vbeta: AVISQKPSRDICQRGTSLTIQCQVDSQVTMMFWYRQQPGQSLTLIATANQGSEATYESGFVIDKFPISRPNLTFSTLTVSNMSPEDSSIYLCSVRSEDTQYFGPGTRLTVL
**Q.** Does B4 bind [21]?
**A.** Result: no recognition

B5: 4304 TCR-K (TCR, V domains shown)
Valpha: KDQVFQPSTVASSEGAVVEIFCNHSVSNAYNFFWYLHFPGCAPRLLVKGSKPSQQGRYNMTYERFSSSLLILQVREADAAVYYCAVSGYQLIWGAGTKLIIKP
Vbeta: GVAQSPRYKIIEKRQSVAFWCNPISGHATLYWYQQILGQGPKLLIQFQNNGVVDDSQLPKDRFSAERLKGVDSTLKIQPAKLEDSAVYLCASSLDRRGGRETQYFGPGTRLLVL
**Q.** Does B5 bind [21]?
**A.** Result: no recognition
